In publication PMC10644352, “Bromodomain Factor 5 as a Target for Antileishmanial Drug Discovery” (ACS Infectious Diseases, 2023):
No end group written: not given here.

Key:
[1] = biological target: T1, Leishmania donovani bromodomain factor 5 (LdBDF5) second bromodomain, recombinant BD5.2 (Leishmania donovani); assay: fluorescence polarisation; 800 nM 5-FAM peptide, protein 0-300 μM; 20 mM HEPES, 500 mM NaCl, 1 mg/mL BSA, pH 7.5; 30 min at room temperature; one-site-specific binding fit (two-site for BD5T); n = 3; conditions: both partners purified
T1 construct: L. donovani BDF5 (LDBPK_091320), construct with the second bromodomain; His-tags were not cleaved for BD5.2; Expected mass 17.9 kDa; Monomer by SEC-MALLS; also called LdBDF5 BD5.2; source: E. coli Rosetta2 (DE3) pLysS, purified (IMAC, SEC)

[2] = biological target: T2, Leishmania donovani bromodomain factor 5 (LdBDF5) first bromodomain, recombinant BD5.1 (Leishmania donovani); assay: as above; conditions: both partners purified
T2 construct: L. donovani BDF5 (LDBPK_091320), construct with the first bromodomain; Plasmid from the Structural Genomics Consortium, pET-15-MHL backbone (Addgene plasmid #26092), which encodes a cleavable His-tag; His-tags were not cleaved for BD5.1; Expected mass 15.2 kDa; Monomer by SEC-MALLS; also called LdBDF5 BD5.1; LdBDF5.1; source: E. coli Rosetta2 (DE3) pLysS, purified (IMAC, SEC)

B1: 5-FAM-labeled H4(1-15)K2Ac K4Ac K10Ac K14Ac peptide of L. donovani histone H4 (peptide)
chain: AK(Ac)GK(Ac)RSADAK(Ac)SSQK(Ac)R
modifications: also: 5-FAM at N-terminus or via ethylene diamine linker at C-terminus
Kd [1]: 353 µM | Kd [2]: 137 µM
